Results on 40 molecules are retold here after patent US20110118131A1 (published 2011).

T1: Ep-CAM (UniProt P16422 24-265, limits assumed)
T1 construct: Immobilised on the Biacore chip; construct not described
T1 sequence (looked up): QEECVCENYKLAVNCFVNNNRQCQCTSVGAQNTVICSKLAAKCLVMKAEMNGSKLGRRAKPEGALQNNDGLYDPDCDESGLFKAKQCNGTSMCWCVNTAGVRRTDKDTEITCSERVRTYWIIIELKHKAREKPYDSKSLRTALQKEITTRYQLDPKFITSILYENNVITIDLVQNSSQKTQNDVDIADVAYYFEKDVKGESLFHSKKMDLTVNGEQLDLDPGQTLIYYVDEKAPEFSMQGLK

B1: ING-1 Fab, light chain M56G (Fab, V domains shown)
VH: QIQLVQSGPELKKPGETVKISCKASGYTFTKYGMNWVKQAPGKGLKWMGWINTYTEEPTYGDDFKGRFAFSLETSASTANLQINNLKSEDTATYFCARFGSAVDYWGQGTSVTVSS
VL: DIVMTQAAFSNPVTLGTSGSISCRSSKSLLHSNGITYLYWYLQKPGQSPQLLIYQGSNLASGVPDRFSSSGSGTDFTLRISRVEAEDVGVYYCAQNLELPRTFGGGTKLEMKR
notes: Fab in periplasmic extract
B2: ING-1 Fab, light chain P100A (Fab, V domains shown)
VH: B1 VH
VL: B1 VL with G56M, P100A
notes: Fab in periplasmic extract
B3: ING-1 Fab, light chain R101A (Fab, V domains shown)
VH: B1 VH
VL: B1 VL with G56M, R101A
notes: Fab in periplasmic extract
B4: ING-1 Fab, light chain Q55G (Fab, V domains shown)
VH: B1 VH
VL: B1 VL with Q55G, G56M
notes: Fab in periplasmic extract
B5: ING-1 Fab, light chain Y37V (Fab, V domains shown)
VH: B1 VH
VL: B1 VL with Y37V, G56M
notes: Fab in periplasmic extract
B6: ING-1 Fab, light chain R101G (Fab, V domains shown)
VH: B1 VH
VL: B1 VL with G56M, R101G
notes: Fab in periplasmic extract
B7: ING-1 Fab, light chain S57G (Fab, V domains shown)
VH: B1 VH
VL: B1 VL with G56M, S57G
notes: Fab in periplasmic extract
B8: ING-1 Fab, light chain Y37A (Fab, V domains shown)
VH: B1 VH
VL: B1 VL with Y37A, G56M
notes: Fab in periplasmic extract
B9: ING-1 Fab, light chain M56V (Fab, V domains shown)
VH: B1 VH
VL: B1 VL with G56V
notes: Fab in periplasmic extract
B10: ING-1 Fab, light chain Y37I (Fab, V domains shown)
VH: B1 VH
VL: B1 VL with Y37I, G56M
notes: Fab in periplasmic extract
B11: ING-1 Fab, light chain P100T (Fab, V domains shown)
VH: B1 VH
VL: B1 VL with G56M, P100T
notes: Fab in periplasmic extract
B12: ING-1 Fab, light chain Y54A (Fab, V domains shown)
VH: B1 VH
VL: B1 VL with Y54A, G56M
notes: Fab in periplasmic extract
B13: ING-1 Fab, light chain P100L (Fab, V domains shown)
VH: B1 VH
VL: B1 VL with G56M, P100L
notes: Fab in periplasmic extract
B14: ING-1 Fab, light chain Y54I (Fab, V domains shown)
VH: B1 VH
VL: B1 VL with Y54I, G56M
notes: Fab in periplasmic extract
B15: ING-1 Fab, light chain N33V (Fab, V domains shown)
VH: B1 VH
VL: B1 VL with N33V, G56M
notes: Fab in periplasmic extract
B16: ING-1 Fab, light chain Y37T (Fab, V domains shown)
VH: B1 VH
VL: B1 VL with Y37T, G56M
notes: Fab in periplasmic extract
B17: ING-1 Fab, light chain R101T (Fab, V domains shown)
VH: B1 VH
VL: B1 VL with G56M, R101T
notes: Fab in periplasmic extract
B18: ING-1 Fab, light chain R101P (Fab, V domains shown)
VH: B1 VH
VL: B1 VL with G56M, R101P
notes: Fab in periplasmic extract
B19: ING-1 Fab, light chain N33T (Fab, V domains shown)
VH: B1 VH
VL: B1 VL with N33T, G56M
notes: Fab in periplasmic extract
B20: ING-1 Fab, light chain M56T (Fab, V domains shown)
VH: B1 VH
VL: B1 VL with G56T
notes: Fab in periplasmic extract
B21: ING-1 Fab, light chain R101I (Fab, V domains shown)
VH: B1 VH
VL: B1 VL with G56M, R101I
notes: Fab in periplasmic extract
B22: ING-1 Fab, light chain R101V (Fab, V domains shown)
VH: B1 VH
VL: B1 VL with G56M, R101V
notes: Fab in periplasmic extract
B23: XPA23 heavy chain D106A (Fab, V domains shown)
VH: EVQLLESGGGLVQPGGSLRLSCAASGFTFSKYFMFWVRQAPGKGLEWVSVISPSGGMTRYADSVKGRFTISRDNSKNTLYLQMNSLRAEDTAVYYCARVGYGGNSAYWGQGTLVTVSS
VL: DIQMTQSPSSVSASVGDRLTIICRASQDINRWLAWYQQTPGNAPKLLIHSATSLQSGVPSRFSGSGSGTDFTLTINSLQPEDFATYYCQQADSFPLTFGGGTKVEIK
notes: Fab, periplasmic extract; also called C5A D106A
B24: XPA23 heavy chain D106T (Fab, V domains shown)
VH: B23 VH with A106T
VL: B23 VL
notes: Fab, periplasmic extract; also called C5A D106T
B25: XPA23 heavy chain D106V (Fab, V domains shown)
VH: B23 VH with A106V
VL: B23 VL
notes: Fab, periplasmic extract; also called C5A D106V
B26: XPA23 heavy chain G100P (Fab, V domains shown)
VH: B23 VH with G100P, A106D
VL: B23 VL
notes: Fab, periplasmic extract; also called C5A G100P
B27: XPA23 heavy chain G102L (Fab, V domains shown)
VH: B23 VH with G102L, A106D
VL: B23 VL
notes: Fab, periplasmic extract; also called C5A G102L
B28: XPA23 heavy chain D106P (Fab, V domains shown)
VH: B23 VH with A106P
VL: B23 VL
notes: Fab, periplasmic extract; also called C5A D106P
B29: XPA23 heavy chain D106L (Fab, V domains shown)
VH: B23 VH with A106L
VL: B23 VL
notes: Fab, periplasmic extract; also called C5A D106L
B30: XPA23 heavy chain R59I (Fab, V domains shown)
VH: B23 VH with R59I, A106D
VL: B23 VL
notes: Fab, periplasmic extract; also called C5A R59I
B31: XPA23 heavy chain R59A (Fab, V domains shown)
VH: B23 VH with R59A, A106D
VL: B23 VL
notes: Fab, periplasmic extract; also called C5A R59A
B32: XPA23 heavy chain G102V (Fab, V domains shown)
VH: B23 VH with G102V, A106D
VL: B23 VL
notes: Fab, periplasmic extract; also called C5A G102V
B33: XPA23 heavy chain G100L (Fab, V domains shown)
VH: B23 VH with G100L, A106D
VL: B23 VL
notes: Fab, periplasmic extract; also called C5A G100L
B34: XPA23 heavy chain K31T (Fab, V domains shown)
VH: B23 VH with K31T, A106D
VL: B23 VL
notes: Fab, periplasmic extract; also called C5A K31T
B35: XPA23 heavy chain M57P (Fab, V domains shown)
VH: B23 VH with M57P, A106D
VL: B23 VL
notes: Fab, periplasmic extract; also called C5A M57P
B36: XPA23 heavy chain K31P (Fab, V domains shown)
VH: B23 VH with K31P, A106D
VL: B23 VL
notes: Fab, periplasmic extract; also called C5A K31P
B37: XPA23 heavy chain I51P (Fab, V domains shown)
VH: B23 VH with I51P, A106D
VL: B23 VL
notes: Fab, periplasmic extract; also called C5A I51P
B38: XPA23 heavy chain G102P (Fab, V domains shown)
VH: B23 VH with G102P, A106D
VL: B23 VL
notes: Fab, periplasmic extract; also called C5A G102P
B39: XPA23 heavy chain G102A (Fab, V domains shown)
VH: B23 VH with G102A, A106D
VL: B23 VL
notes: Fab, periplasmic extract; also called C5A G102A
B40: XPA23 heavy chain D106I (Fab, V domains shown)
VH: B23 VH with A106I
VL: B23 VL
notes: Fab, periplasmic extract; also called C5A D106I

Positions count from the first letter of the chain named. Names and notes keep the numbering of the source.

In one experiment the target is T1, Ep-CAM. Kind of experiment: Biacore, Fab periplasmic extract.
As for B1, the “fold difference in affinity vs original ING-1” value (“fold difference in affinity” below) amounted to 0.8 fold.
As to B2, the “fold difference in affinity” value turned out to be 0.05 fold.
On to B3, for which the binding result is listed as “no binding”.
In the case of B4, the “fold difference in affinity” value is 0.7 fold.
As to B5, the binding result is given as “no binding”.
Still for that read-out and setting: to B6 belongs “no binding”; to B7, “no binding”.
For the molecule B8, the “fold difference in affinity” value was 0.04 fold.
Regarding B9, the binding result is “no binding”.
Regarding B10, the “fold difference in affinity” value was 0.9 fold.
Same read-out and setting: to B11 belongs 0.08 fold; to B12, 0.08 fold; to B13, 0.03 fold.
Consider B14, for which the binding result was “no binding”.
B15: the binding result is reported as “no binding”.
As for B16, the binding result is “no binding”.
On to B17, for which the binding result is “no binding”.
Same read-out and setting: to B18 belongs “no binding”.
Consider B19, for which the “fold difference in affinity” value was found to be 0.6 fold.
In the case of B20, the “fold difference in affinity” value turned out to be 0.8 fold.
Take B21: the binding result is recorded as “no binding”.
As to B22, the binding result is “no binding”.

The next experiment concerns the target T2, IL-1β (UniProt P01584 117-269).
T2 construct: Antigen of XPA23
Kind of experiment: Biacore, Fab periplasmic extract; -1 = no binding by the table's footnote.
Take B23: the binding result is recorded as “no binding”.
The same measure, in the same setting: to B24 belongs “no binding”.
On the same count and under the same terms, to B25 belongs “no binding”.
Still for that read-out and setting: to B26 belongs “no binding”.
As for B27, the binding result is given as “no binding”.
Same read-out and setting: to B28 belongs “no binding”; to B29, “no binding”.
Turning to B30, the binding result is recorded as “no binding”.
Same read-out and setting: to B31 belongs “no binding”.
Same read-out and setting: to B32 belongs “no binding”; to B33, “no binding”; to B34, “no binding”.
Still for that read-out and setting: to B35 belongs “no binding”; to B36, “no binding”; to B37, “no binding”.
Regarding B38, the binding result was “no binding”.
B39: the binding result is listed as “no binding”.
As for B40, the binding result was “no binding”.
